# The supplement of paper PMC10724198
# ± gives the standard deviation of the averaged measurements.
# Test system: Saccharomyces cerevisiae
# Assay: protein stability index of tFT-peptide fusion (C-terminal peptide) (PSI (0-1 scale)); higher = more stable (slower turnover)
# Conditions: genetic background: wild type; temperature: 30 C
# 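Further: PSI is a weighted mean of sequencing reads over stability bins, variants kept only with over 10 reads, mCherry proximal and sfGFP distal, peptide attached via GGGS linker.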
row,Sequence,protein stability index
1,SICFWCKHWSDV,0.72 ± 0.064
2,VPPPLRPLPPPP,0.629 ± 0.14
3,ALVPPDPTPPPP,0.699 ± 0.047
4,SLSLSFVLSSCS,0.721 ± 0.014
5,EPAAGFAICRHH,0.67 ± 0.02
6,GNTQSIEQALLV,0.752 ± 0.028
7,GEWVNLGFGFLF,0.781 ± 0.11
8,DICYGVALSQVE,0.676 ± 0.045
9,GRVGGRAGGRGR,0.691 ± 0.039
10,TWIKVPVERTRP,0.683 ± 0.053
11,RLPLYAIPPFPP,0.636 ± 0.0091
12,VIWAPVLAFSVR,0.638 ± 0.051
13,PPPTPPPPRPLL,0.747 ± 0.048
14,NNRIRNIISIRK,0.743 ± 0.04
15,PPPPTSFSPGTL,0.649 ± 0.043
16,RQFRKKNTLKSE,0.65 ± 0.1
17,VFLRVGAPPVRI,0.586 ± 0.032
18,PHPQPRPTAPSP,0.7177 ± 0.002
19,RVQLTLKGTGVT,0.629 ± 0.029
20,TSPTPFVSCSLP,0.629 ± 0.044
21,GRKKKINDDKKN,0.688 ± 0.071
22,ASSPSLSSPPTL,0.7106 ± 0.0051
23,SVAWGGGVVEWG,0.661 ± 0.11
24,LPAHLLPPSSPS,0.741 ± 0.03
25,RLRPGGHPCVFF,0.66 ± 0.041
26,YVCLATLSSFSF,0.644 ± 0.048

row,Sequence,protein stability index
1,FPSLPSPSPSSH,0.684 ± 0.031
2,QLETAIEEKNNE,0.704 ± 0.0087
3,RPTTTQPPPTAS,0.62 ± 0.022
4,SWAFAGGGAATG,0.694 ± 0.011
5,PAPSPLVLFFGF,0.692 ± 0.03
6,KKKKKKKEKKAK,0.644 ± 0.042
7,SSPAPPPPSPAS,0.744 ± 0.043
8,VWDQTKKKKIKK,0.704 ± 0.014
9,SLASSLHTYDLT,0.661 ± 0.032
10,LLRWCFDLWWVL,0.532 ± 0.051
11,PPPLTPPPPPPR,0.725 ± 0.014
12,GLAQRAIKNRHR,0.679 ± 0.11
13,TMLLPPPNLATI,0.71 ± 0.026
14,TFFPPLPPPSPS,0.702 ± 0.012
15,VCLVLGGVEWCV,0.6861 ± 0.004
16,LRSRTPPSPHFP,0.626 ± 0.0069
17,PHRPIGRVKHAS,0.71 ± 0.038
18,GESWCGLVWPGG,0.675 ± 0.013
19,CRGLRRSLGSIL,0.682 ± 0.063
20,ARACPLCFVMMF,0.559 ± 0.013
21,REVIGFLSYWKG,0.711 ± 0.14
22,PAPALPPPSSPP,0.69 ± 0.0095
23,LRIQKIVSGALM,0.707 ± 0.01
24,PLPPPSLPPSPS,0.699 ± 0.036
25,GFGSGVVAGSSL,0.682 ± 0.044
26,PPPPPFLPPPRL,0.749 ± 0.011

row,Sequence,protein stability index
1,RGRQRSDPPTRL,0.717 ± 0.061
2,EWNWRSVYGFGE,0.748 ± 0.027
3,LTRFQPTPCLPP,0.691 ± 0.0074
4,KKEDNKEKYRKK,0.667 ± 0.013
5,LFGFFLECCFCT,0.599 ± 0.052
6,GLDDLMPGRVLW,0.666 ± 0.015
7,FWERWDLFCGLC,0.702 ± 0.1
8,PPSSPPPASHRP,0.691 ± 0.046
9,PPPRHVPLPPLT,0.71 ± 0.11
10,VYMDKKNKCIMK,0.795 ± 0.15
11,APPPPPPFPPLP,0.684 ± 0.093
12,FLSLGVIARYFL,0.6325 ± 0.0042
13,ELRPSTTPLHPS,0.68268 ± 0.00044
14,PMLRSLVVLSSR,0.669 ± 0.022
15,LQRHSSQQTTSA,0.658 ± 0.025
16,PCTPLPRPRTSR,0.702 ± 0.065
17,YVEVLLFTSVGF,0.569 ± 0.07
18,CPNFYPARNSRL,0.696 ± 0.2
19,ITLFPKGLRANK,0.686 ± 0.045
20,PALPPPSLPPPP,0.6718 ± 0.0023
21,QDSETYSNEAGL,0.669 ± 0.031
22,IDLGWSRWGALA,0.662 ± 0.086
23,GRNFSHKKRGKY,0.685 ± 0.03
24,AKSSLGSSYKTL,0.761 ± 0.064
25,CYVCVDVCKRGC,0.535 ± 0.18
26,SVSGRYYAVRVR,0.566 ± 0.0072

row,Sequence,protein stability index
1,RRSENHTEHKGD,0.712 ± 0.032
2,IFPVFHPPFVVI,0.557 ± 0.05
3,PLPPPNPPLPVF,0.615 ± 0.036
4,AEGCHIRVHWGV,0.7265 ± 0.0066
5,PGSRRAQPVTSG,0.741 ± 0.022
6,GGGSGGRRLVRF,0.726 ± 0.023
7,IFGCPEFFCFLL,0.696 ± 0.061
8,RPDSGFPLRGSS,0.75 ± 0.098
9,SSTLVAFRFPSP,0.7014 ± 0.0043
10,LPPRPPTHSPPP,0.722 ± 0.011
11,PPASFTPPFLPP,0.69 ± 0.013
12,GRRNGLCENPRG,0.657 ± 0.0077
13,SLLTQSPLLPPP,0.777 ± 0.29
14,LLLARWASFIMS,0.685 ± 0.01
15,SLSPWRLPIGGR,0.734 ± 0.035
16,RVYKTAYNRRTQ,0.832 ± 0.021
17,SSSPLPPLRLCL,0.743 ± 0.041
18,HFAMCSTTFVIT,0.618 ± 0.029
19,WSSTLFFFVGFS,0.673 ± 0.056
20,VWVAGGVLWVLG,0.5433 ± 0.0042
21,CLRLAFPSGPCI,0.683 ± 0.098
22,GLYTRLYIPRPC,0.739 ± 0.033
23,PPSTPPRPDSPP,0.578 ± 0.084
24,GGGARWAGLGEG,0.687 ± 0.06
25,THTDQKTNHRRQ,0.69 ± 0.05
26,PYTHDRTTSPVF,0.762 ± 0.12

row,Sequence,protein stability index
1,LANAGLVLPRIP,0.679 ± 0.0071
2,PLLPSLPLPPSP,0.716 ± 0.011
3,VSLFETIPVLSR,0.605 ± 0.014
4,SGDVENQMGEES,0.717 ± 0.062
5,KKNSTKKKKESW,0.633 ± 0.029
6,EFEDCGAWGNIG,0.621 ± 0.039
7,CVSYLVIFDRRY,0.6742 ± 0.0043
8,PCPAPLPPPAPP,0.619 ± 0.0098
9,DSPRSLALFRSC,0.642 ± 0.028
10,GGVYVASQGTFV,0.673 ± 0.021
11,PLAPPRHRRRPG,0.7132 ± 0.0047
12,PVRCSDLDLTFL,0.774 ± 0.054
13,TQEQVQKKLLKS,0.665 ± 0.015
14,TLTLVIPTSRDQ,0.717 ± 0.064
15,CQQIKKNKKIKN,0.661 ± 0.0026
16,RGSPPDPRGRAG,0.685 ± 0.074
17,SCLHRDLSDTCQ,0.66536 ± 0.00012
18,TRSSHSHLETFV,0.684 ± 0.03
19,SFEFSSRVFSLD,0.714 ± 0.055
20,RRRKGTKNMQSK,0.727 ± 0.061
21,SLLGFAGSCLLG,0.735 ± 0.1
22,HLGVLDSFLAEG,0.629 ± 0.028
23,AGALYGNPCPPL,0.657 ± 0.019
24,RGASDYARMSAF,0.7047 ± 0.0037
25,SFWWCSARSFQG,0.715 ± 0.03
26,ELLPFPPPSAPT,0.719 ± 0.022

row,Sequence,protein stability index
1,KKSGISSGPNDT,0.689 ± 0.043
2,LWSDPGQILVEL,0.717 ± 0.015
3,PDERMVIPAIRD,0.665 ± 0.12
4,PPRPRPPLPALP,0.764 ± 0.11
5,PSRVRPLRLVLP,0.614 ± 0.033
6,SPPPLHPPPPAL,0.637 ± 0.046
7,PMHVILGLSGQP,0.732 ± 0.059
8,FRAAGFLAGRYR,0.738 ± 0.039
9,PYHVPTPRATNR,0.659 ± 0.026
10,PLLIPPPPTYPP,0.63 ± 0.038
11,GGRGRGMWGIFG,0.681 ± 0.0096
12,SGGCVGLAVAGG,0.702 ± 0.056
13,RAEGGDSGVAAL,0.703 ± 0.011
14,WAFGSTVSSGIV,0.689 ± 0.017
15,PPPSPAQIPRPS,0.722 ± 0.19
16,SVPPPPRTPSSI,0.666 ± 0.03
17,KGKRQNIERCRK,0.644 ± 0.099
18,RKQRAGRRKDKQ,0.734 ± 0.043
19,LVCLLFTNKVMH,0.599 ± 0.011
20,ANKKKKKIKTKH,0.757 ± 0.12
21,KKENKSKKIINR,0.568 ± 0.028
22,VLGKIIKLSTYS,0.629 ± 0.059
23,RGRLVVGAGRED,0.697 ± 0.049
24,GALVEGVFGHVR,0.658 ± 0.0066
25,AAAPWSVSGCPG,0.6611 ± 0.0049
26,VAVSLFVPVLFL,0.567 ± 0.061

row,Sequence,protein stability index
1,LRTLVARWIVGQ,0.515 ± 0.021
2,SPPRSVSVGVHK,0.637 ± 0.03
3,CLLLGDALGYYG,0.683 ± 0.033
4,FLSFRLCTAAPV,0.559 ± 0.031
5,HPTFARIPPIPP,0.525 ± 0.0088
6,LIYKRQPAFRCG,0.632 ± 0.023
7,EEKREERGDRGR,0.579 ± 0.01
8,DLKGCVTFCTSI,0.638 ± 0.049
9,VGRGEEYYGMEV,0.634 ± 0.0066
10,LFCSSHRMQTKL,0.746 ± 0.029
11,PCPSPPALPLAP,0.696 ± 0.056
12,PPLPPPFSPLPP,0.686 ± 0.025
13,WLAGKAGASHRG,0.656 ± 0.0079
14,VGSTKMRYFGEG,0.692 ± 0.018
15,GVAVLAGWEVLG,0.653 ± 0.021
16,PFATARLFPLPP,0.804 ± 0.019
17,VVLFGAGGSWGG,0.726 ± 0.063
18,SCPLSARLYASL,0.675 ± 0.079
19,GGEGRGRVWEIS,0.686 ± 0.068
20,SGGVRDDFLWVL,0.728 ± 0.016
21,ECRGGPGLGGGV,0.635 ± 0.046
22,EEKEKKEKDGRR,0.728 ± 0.042
23,CLALLSYLGFTF,0.675 ± 0.069
24,PAPPPPPLPPPP,0.615 ± 0.041
25,YLCLPPALISRI,0.656 ± 0.029
26,PRLLSLKLSALS,0.629 ± 0.063

row,Sequence,protein stability index
1,YPPPPPPPPPRF,0.7367 ± 0.0056
2,TNTEEKRKIRRS,0.697 ± 0.11
3,GAPPPAFPISSP,0.648 ± 0.05
4,FSPLTFLLSFPL,0.679 ± 0.019
5,SVRVRKGRYDNK,0.707 ± 0.018
6,EVIRGNEGGKER,0.708 ± 0.018
7,LVLRLLRGFLPK,0.681 ± 0.014
8,GKRETQVEEGAR,0.765 ± 0.11
9,PSPLRRSTPPCL,0.709 ± 0.13
10,AVVVCGGGWWWA,0.746 ± 0.094
11,GCMRCTYKGKVK,0.713 ± 0.059
12,SPRPAPPRSTPP,0.67 ± 0.063
13,SGGQGCGGGWNV,0.708 ± 0.011
14,GGALTADTTIAP,0.662 ± 0.087
15,GSRVGRATGRRR,0.709 ± 0.014
16,GVRATRMGGGPL,0.706 ± 0.015
17,GVGLGGFGVWGV,0.73 ± 0.074
18,TVPAKQHLSGYE,0.679 ± 0.011
19,INPKSGIVVKFR,0.679 ± 0.04
20,LIRVSPDVNITA,0.622 ± 0.066
